Data taken from patent US7445940.

Molecular target: human endoglin (human) (UniProt P17813)
Test: cell-based or functional assay

Chain of UniProt P17813 (P17813 26-658): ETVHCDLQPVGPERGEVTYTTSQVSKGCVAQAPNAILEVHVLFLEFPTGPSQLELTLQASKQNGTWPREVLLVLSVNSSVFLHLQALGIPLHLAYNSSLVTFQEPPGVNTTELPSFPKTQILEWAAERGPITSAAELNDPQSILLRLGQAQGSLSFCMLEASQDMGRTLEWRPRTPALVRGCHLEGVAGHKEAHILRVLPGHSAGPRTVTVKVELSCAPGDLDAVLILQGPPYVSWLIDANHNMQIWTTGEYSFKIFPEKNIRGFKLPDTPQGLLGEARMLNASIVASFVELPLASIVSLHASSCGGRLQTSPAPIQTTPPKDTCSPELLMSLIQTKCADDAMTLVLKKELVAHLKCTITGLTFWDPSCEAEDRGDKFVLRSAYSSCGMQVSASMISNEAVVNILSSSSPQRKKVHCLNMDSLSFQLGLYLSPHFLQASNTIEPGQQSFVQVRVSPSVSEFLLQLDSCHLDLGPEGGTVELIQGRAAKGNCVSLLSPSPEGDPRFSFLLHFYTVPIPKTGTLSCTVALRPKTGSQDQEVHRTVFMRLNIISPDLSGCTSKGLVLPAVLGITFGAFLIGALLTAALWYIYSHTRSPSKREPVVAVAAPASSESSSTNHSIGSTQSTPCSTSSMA

Work on “Murine monoclonal antibody (MAb) 44G4 specific for human endoglin” yielded an EVT outgrowth and migration (EVT outgrowths/villous tip), 24 h after addition (day 2 of culture) (EVT outgrowths/villous tip) of 2.03, a concentration of maximal stimulation of EVT outgrowth of 1 µg/mL and a fibronectin (FN) synthesis by villous explants, fold increase relative to control of 8 fold.
